Key:
[1] = target: T1, LARP1 full length (UniProt Q6PKG0-3 1-1019); experiment: competition; vs 32P-RPS6, 1-30 uM cold RNA; 20 mM Tris-HCl pH 8, 150 mM NaCl, 10% glycerol, 1 mM DTT, 1 ug BSA, 0.5 ug tRNA, RNA <2 nM, 30 min on ice; native PAGE at 4 C; conditions: protein: recombinant; tags: N-terminal 6xHis-MBP, removed by TEV cleavage; label: 5'-32P in direct EMSA
[2] = target: T1, LARP1 full length; experiment: EMSA; tRNA and BSA present; Kd only in figure; 20 mM Tris-HCl pH 8, 150 mM NaCl, 10% glycerol, 1 mM DTT, 1 ug BSA, 0.5 ug tRNA, RNA <2 nM, 30 min on ice; native PAGE at 4 C; conditions: protein: recombinant; tags: N-terminal 6xHis-MBP, removed by TEV cleavage; label: 5'-32P in direct EMSA
[3] = target: T1, LARP1 full length; experiment: EMSA; judged non-specific; Kd only in figure; 20 mM Tris-HCl pH 8, 150 mM NaCl, 10% glycerol, 1 mM DTT, 1 ug BSA, 0.5 ug tRNA, RNA <2 nM, 30 min on ice; native PAGE at 4 C; conditions: protein: recombinant; tags: N-terminal 6xHis-MBP, removed by TEV cleavage; label: 5'-32P

B1: OAZ1 3' UTR (ssRNA)
RNA: GGCCGCCUCGGGGCUGGGCAUCCGGCCCCUGGGGCCACCCCUUGUCAGCCGGGUGGGUAGGAACCGUAGACUCGCUCAUCUCGCCUGGGUUUGUCCGCAUGUUG
**Q.** Does B1 bind [1]?
**A.** Result: no binding

B2: BCL2 3' UTR construct 3 (ssRNA)
RNA: GCCUGUUUUGUCUUUUGUUGUUGUUCAAACGGGAUUCACAGAGUAUUUGAAAAAUGUAUAUAUAUUAAGAGGUCACGGGGGCUAAUUGCUGGCUGGCUGCCUUUUGCUGUGGGGUUUUGUU
**Q.** For B2, which binding signal [2] is on record?
**A.** The binding signal was ~4 fold higher affinity than other BCL2 constructs.

B3: BCL2 3' UTR construct 2 (ssRNA)
RNA: GCCCUCCUGCCCUCCUUCCGCGGGGGCUUUCUCAUGGCUGUCCUUCAGGGUCUUCCUGAAAUGCAGUGGUGCUUACGCUCCACCAAGAAAGCAGGAAACCUGUGGUAUGAAGCCAGACCUCCCCGG
**Q.** B3 was tested. Which binding signal [3] did it give?
**A.** The binding signal was ~0.25 affinity relative to BCL2 construct 3.

B4: BCL2 3' UTR construct 4 (ssRNA)
RNA: GCCCUCCAGAUAGCUCAUUUCAUUAAGUUUUUCCCUCCAAGGUAGAAUUUGCAAGAGUGACAGUGGAUUGCAUUUCUUUUGGGGAAGCUUUCUUUUGGUGGUUUUGUUUAUUAUACCUUCUUAAGUUUUCAACCAAGGUUUGCUUUUGUU
**Q.** B4 was tested. Which binding signal [3] did it give?
**A.** Its binding signal is ~0.25 affinity relative to BCL2 construct 3.

B5: BCL2 3' UTR construct 1 (ssRNA)
RNA: GGCUCCACCUGGAUGUUCUGUGCCUGUAAACAUAGAUUCGCUUUCCAUGUUGUUGGCCGGAUCACCAUCUGAAGAGCAGACGGAUGGAAAAAGGACCUGAUCAUUGGGGAAGCUGGCUUUCUGGCUGCUGGAGGCUGGGGAGAAGGUGUUCAUUCACUUGCAUUUCUUUGCCCUGGG
**Q.** How did the binding signal [3] turn out when B5 was run?
**A.** Its binding signal is ~0.25 affinity relative to BCL2 construct 3.
